The target of this series is T1, MutS (Escherichia coli, UniProt P23909 1-853).
T1 sequence: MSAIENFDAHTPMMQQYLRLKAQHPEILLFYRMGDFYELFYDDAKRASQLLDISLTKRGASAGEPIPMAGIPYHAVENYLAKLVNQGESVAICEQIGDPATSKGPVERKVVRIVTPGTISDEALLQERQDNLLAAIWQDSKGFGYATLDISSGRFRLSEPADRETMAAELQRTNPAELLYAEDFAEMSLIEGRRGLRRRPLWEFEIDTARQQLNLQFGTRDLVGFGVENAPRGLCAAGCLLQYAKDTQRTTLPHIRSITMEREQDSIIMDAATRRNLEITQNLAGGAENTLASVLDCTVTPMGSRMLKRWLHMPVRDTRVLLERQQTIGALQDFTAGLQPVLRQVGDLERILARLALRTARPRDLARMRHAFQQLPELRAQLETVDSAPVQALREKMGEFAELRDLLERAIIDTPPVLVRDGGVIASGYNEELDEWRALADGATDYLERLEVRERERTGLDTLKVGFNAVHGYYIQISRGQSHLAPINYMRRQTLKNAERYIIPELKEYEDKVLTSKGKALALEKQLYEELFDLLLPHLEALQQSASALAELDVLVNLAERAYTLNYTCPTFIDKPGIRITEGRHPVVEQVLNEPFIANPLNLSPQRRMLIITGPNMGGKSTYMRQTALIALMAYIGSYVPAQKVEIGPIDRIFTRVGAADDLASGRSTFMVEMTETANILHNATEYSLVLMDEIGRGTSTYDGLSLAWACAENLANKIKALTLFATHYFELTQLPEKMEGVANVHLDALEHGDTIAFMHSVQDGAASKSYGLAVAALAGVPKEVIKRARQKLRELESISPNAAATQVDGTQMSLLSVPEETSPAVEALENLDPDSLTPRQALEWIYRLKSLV
The series can be described thus: EMSA (Scatchard); 1 mM ADP, 5 mM Mg2+; EMSA: 20 mM HEPES pH 8.0, 125 mM KCl, 1 mM ADP, 5 mM MgCl2, 1 mg/ml BSA, 9% glycerol, 37 C 20 min (gel at 4 C); fluorescence: 25 mM Tris-HCl pH 7.5, 125 mM KCl, 5 mM MgCl2, 1 mM ADP, 20 C. Conditions: protein: recombinant, tags: His-tag (Ni-NTA purified), chain copies: 2, label: 5'-32P, blunt.

Positions count from the first letter of the chain named.

B1: duplex IV (A/Tg) (dsDNA)
DNA 1: CAAGCCTATGCCCTCAGCACCCAAGGTGCC
DNA 2: GGCACCTTGGGTGCTGAGGGCATAGGCTTG
modifications: thymidine glycol (5R,6S) at T7 of strand 2
Regarding B1, for the setting “strand 1 A24 : strand 2 Tg7”, the dissociation constant Kd stood at 25 ± 3 nM.

B2: duplex II (G/T) (dsDNA)
DNA 1: B1 DNA 1 with A24G
DNA 2: B1 DNA 2
For B2, the Kd (G/T mismatch strand 1 G24 : strand 2 T7) stood at 7 ± 1.5 nM.

B3: duplex III (G/Tg) (dsDNA)
DNA 1: B1 DNA 1 with A24G
DNA 2: B1 DNA 2
modifications: thymidine glycol (5R,6S) at T7 of strand 2
Consider B3, for which the Kd (strand 1 G24 : strand 2 Tg7) was determined as 44 ± 2.3 nM.

B4: duplex I (G/C) (dsDNA)
DNA 1: B1 DNA 1 with A24G
DNA 2: B1 DNA 2 with T7C
On to B4, for which the Kd amounted to 32 ± 3.3 nM.

What is called Kd is the constant that tells how readily two partners part at equilibrium.

Values taken from PMC4136841, “Is Thymidine Glycol Containing DNA a Substrate of E. coli DNA Mismatch Repair System?”.
